Numbering of substitutions follows the chain as printed. In names and notes the source's numbering stands. Read-outs that look alike come from different tables or passages of the source.
Key:
[1] = circular dichroism thermal denaturation at 222 nm
[2] = target: T1, Coil 10 heavy chain peptide for CD studies (VelB L24I); test: circular dichroism thermal denaturation at 222 nm, 150 µM total peptide
T1 construct: also called Coil 10 (L24I); L24I VelB variant
T1 peptide: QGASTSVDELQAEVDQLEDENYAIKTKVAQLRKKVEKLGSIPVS

[3] = target: T2, Coil 148 heavy chain peptide for CD studies (VelB L24I/V28L); test: as above
T2 construct: also called Coil 148 (L24I/V28L)
T2 peptide: T1 peptide with V28L

[4] = target: T3, Vel heavy chain peptide for CD studies (VelB); test: as above
T3 construct: also called VelB (heavy chain) peptide; VelB1
T3 peptide: T1 peptide with I24L

recombinant human CD47 [5] = target: T4, recombinant human CD47 (human, UniProt Q08722 19-139, limits assumed); test: saturation binding ELISA
T4 construct: also called recombinant CD47 antigen

recombinant human CD47 [6] = target: T4, recombinant human CD47; test: saturation binding ELISA; remark: listed apart in the source
[7] = target: Antigen 1 (Ab1 target) expressed on HEK293 / HEK-293F cells; test: saturation binding FACS, HEK293 cells
Sequence of Antigen 1 (Ab1 target) expressed on HEK293 / HEK-293F cells (P06756 31-1048, chain 1 of 2): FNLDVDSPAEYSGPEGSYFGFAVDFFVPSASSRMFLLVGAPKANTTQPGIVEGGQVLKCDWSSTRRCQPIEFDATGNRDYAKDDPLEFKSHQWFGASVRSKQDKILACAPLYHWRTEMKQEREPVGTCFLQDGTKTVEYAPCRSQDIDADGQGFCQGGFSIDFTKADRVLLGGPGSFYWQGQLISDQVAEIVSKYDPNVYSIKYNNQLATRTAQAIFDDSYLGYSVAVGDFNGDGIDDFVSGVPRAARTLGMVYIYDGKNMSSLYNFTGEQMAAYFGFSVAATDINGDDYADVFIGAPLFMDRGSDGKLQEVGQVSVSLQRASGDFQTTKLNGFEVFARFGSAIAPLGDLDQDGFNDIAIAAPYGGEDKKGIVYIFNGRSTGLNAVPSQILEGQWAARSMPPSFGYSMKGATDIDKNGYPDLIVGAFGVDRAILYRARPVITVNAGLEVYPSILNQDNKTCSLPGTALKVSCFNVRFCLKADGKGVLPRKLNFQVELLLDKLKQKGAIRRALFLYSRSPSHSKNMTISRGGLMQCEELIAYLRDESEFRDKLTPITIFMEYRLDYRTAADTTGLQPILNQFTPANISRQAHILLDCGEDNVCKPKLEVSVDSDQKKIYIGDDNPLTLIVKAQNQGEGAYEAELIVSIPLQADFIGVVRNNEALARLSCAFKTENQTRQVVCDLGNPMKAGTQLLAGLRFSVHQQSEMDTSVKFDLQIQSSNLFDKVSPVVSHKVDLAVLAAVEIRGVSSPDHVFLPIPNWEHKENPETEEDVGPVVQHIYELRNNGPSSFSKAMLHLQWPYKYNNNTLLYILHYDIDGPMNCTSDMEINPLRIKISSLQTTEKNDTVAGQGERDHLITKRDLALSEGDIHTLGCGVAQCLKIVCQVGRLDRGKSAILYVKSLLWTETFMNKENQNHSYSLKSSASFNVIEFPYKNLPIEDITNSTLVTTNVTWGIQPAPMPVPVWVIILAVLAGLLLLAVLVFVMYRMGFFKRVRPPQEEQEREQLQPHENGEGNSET
Sequence of Antigen 1 (Ab1 target) expressed on HEK293 / HEK-293F cells (P18564 22-788, chain 2 of 2, further chain): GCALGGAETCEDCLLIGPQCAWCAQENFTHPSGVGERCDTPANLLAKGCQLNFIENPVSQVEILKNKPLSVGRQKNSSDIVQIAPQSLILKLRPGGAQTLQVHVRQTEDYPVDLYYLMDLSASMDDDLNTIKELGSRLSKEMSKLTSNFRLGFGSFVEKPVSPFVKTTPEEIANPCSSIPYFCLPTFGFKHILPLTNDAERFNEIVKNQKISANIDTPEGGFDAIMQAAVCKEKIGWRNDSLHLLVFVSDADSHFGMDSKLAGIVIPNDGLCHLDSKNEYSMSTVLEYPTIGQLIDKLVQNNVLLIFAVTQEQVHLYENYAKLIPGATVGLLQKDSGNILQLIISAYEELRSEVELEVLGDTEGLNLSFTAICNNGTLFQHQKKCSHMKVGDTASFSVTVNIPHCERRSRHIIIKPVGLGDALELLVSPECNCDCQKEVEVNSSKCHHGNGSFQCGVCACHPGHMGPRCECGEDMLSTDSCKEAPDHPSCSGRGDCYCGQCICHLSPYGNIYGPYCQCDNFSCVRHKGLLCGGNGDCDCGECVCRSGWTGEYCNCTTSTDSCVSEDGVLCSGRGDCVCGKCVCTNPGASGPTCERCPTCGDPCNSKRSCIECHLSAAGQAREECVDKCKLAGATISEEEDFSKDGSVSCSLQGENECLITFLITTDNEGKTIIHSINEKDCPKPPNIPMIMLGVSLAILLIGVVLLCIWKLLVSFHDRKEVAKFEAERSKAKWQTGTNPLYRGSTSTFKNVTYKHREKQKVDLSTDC

[8] = target: recombinant Antigen 1 (recombinant Ab1 target; recombinant integrin αvβ6 antigen); test: saturation binding ELISA
Sequence of recombinant Antigen 1 (recombinant Ab1 target; recombinant integrin αvβ6 antigen) (P06756 31-992, chain 1 of 2): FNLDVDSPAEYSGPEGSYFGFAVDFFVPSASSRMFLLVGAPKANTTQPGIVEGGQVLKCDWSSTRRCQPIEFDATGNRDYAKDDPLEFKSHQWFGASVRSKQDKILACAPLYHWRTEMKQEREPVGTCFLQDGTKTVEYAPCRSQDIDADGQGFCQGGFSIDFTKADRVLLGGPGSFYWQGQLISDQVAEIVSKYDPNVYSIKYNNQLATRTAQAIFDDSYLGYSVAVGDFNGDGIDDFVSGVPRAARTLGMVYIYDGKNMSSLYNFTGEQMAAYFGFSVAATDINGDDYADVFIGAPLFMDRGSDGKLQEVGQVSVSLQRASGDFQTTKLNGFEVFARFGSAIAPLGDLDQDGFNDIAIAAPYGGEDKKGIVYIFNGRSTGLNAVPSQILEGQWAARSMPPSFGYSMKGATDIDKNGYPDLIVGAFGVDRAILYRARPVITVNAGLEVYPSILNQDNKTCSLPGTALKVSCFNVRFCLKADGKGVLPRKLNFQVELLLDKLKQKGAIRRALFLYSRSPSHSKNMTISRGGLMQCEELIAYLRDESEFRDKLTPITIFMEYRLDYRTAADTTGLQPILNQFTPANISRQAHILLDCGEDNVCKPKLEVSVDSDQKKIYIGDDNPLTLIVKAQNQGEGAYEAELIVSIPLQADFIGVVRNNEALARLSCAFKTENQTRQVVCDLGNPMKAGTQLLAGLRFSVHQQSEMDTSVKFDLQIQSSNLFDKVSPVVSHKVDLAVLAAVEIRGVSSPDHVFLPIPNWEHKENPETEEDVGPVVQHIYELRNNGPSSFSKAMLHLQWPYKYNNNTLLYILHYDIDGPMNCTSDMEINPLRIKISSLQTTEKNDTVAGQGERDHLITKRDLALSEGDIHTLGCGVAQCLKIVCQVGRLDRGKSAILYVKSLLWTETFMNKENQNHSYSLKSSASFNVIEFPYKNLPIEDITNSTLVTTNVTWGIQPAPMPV
Sequence of recombinant Antigen 1 (recombinant Ab1 target; recombinant integrin αvβ6 antigen) (P18564 22-709, chain 2 of 2, further chain): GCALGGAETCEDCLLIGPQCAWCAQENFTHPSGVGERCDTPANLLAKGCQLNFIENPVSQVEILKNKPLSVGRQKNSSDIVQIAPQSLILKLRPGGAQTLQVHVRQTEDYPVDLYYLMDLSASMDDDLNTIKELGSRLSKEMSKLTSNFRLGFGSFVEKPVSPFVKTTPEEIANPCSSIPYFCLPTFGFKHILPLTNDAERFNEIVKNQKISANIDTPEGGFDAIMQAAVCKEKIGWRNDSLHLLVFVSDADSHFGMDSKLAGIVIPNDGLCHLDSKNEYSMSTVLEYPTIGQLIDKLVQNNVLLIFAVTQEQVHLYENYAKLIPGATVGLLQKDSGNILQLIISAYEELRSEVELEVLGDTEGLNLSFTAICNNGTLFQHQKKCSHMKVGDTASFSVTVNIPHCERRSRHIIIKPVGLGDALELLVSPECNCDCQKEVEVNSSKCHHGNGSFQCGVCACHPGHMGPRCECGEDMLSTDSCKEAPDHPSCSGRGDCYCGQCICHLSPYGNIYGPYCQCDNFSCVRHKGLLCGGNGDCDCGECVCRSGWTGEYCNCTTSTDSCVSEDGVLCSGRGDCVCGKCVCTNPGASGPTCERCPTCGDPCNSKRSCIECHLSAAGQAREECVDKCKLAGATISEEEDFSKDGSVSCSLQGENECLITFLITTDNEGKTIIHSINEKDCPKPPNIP

recombinant human CD47 [9] = target: T4, recombinant human CD47; test: saturation binding ELISA; remark: listed apart in the source

B1: Coil 10 light chain peptide for CD studies (VelA L24A) (peptide)
peptide: QGASTTVAQLEEKVKTLRAENYEAKSEVQRLEEQVAQLGSIPVS
notes: also called Coil 10 (L24A); L24A VelA variant
In the case of B1, the “Tm (melting temperature of the light chain homodimer)” value [1] is reported as “Tm=<20 °C” and the “Tm (melting temperature of the heterodimer)” value [2] is reported as 28.6 ° C.

With QGASTTVAQLEEKVKTLRAENYEAKSELQRLEEQVAQLGSIPVS (also called Coil 148 (L24A/V28L)) [Coil 148 light chain peptide for CD studies (VelA L24A/V28L)] the “Tm (melting temperature of the light chain homodimer)” value [1] was “Tm=<20 °C” and the “Tm (melting temperature of the heterodimer)” value [3] was 39.7 ° C.

B2: Vel light chain peptide for CD studies (VelA) (peptide)
peptide: B1 peptide with A24L
notes: also called VelA (light chain) peptide; VelA1
In the case of B2, the “Tm (melting temperature of the light chain homodimer)” value [1] is reported as “Tm=35.7 °C” and the “Tm (melting temperature of the heterodimer)” value [4] is reported as 57.6 ° C.

B3: hB6H12.3 (unmasked anti-CD47 antibody) (antibody, V domains shown)
VH: EVQLLESGGGLVQPGGSLRLSCAASGFTFSGYGMSWVRQAPGKRLEWVATITSGGTYTYYPDSVKGRFTISRDNSKNTLYLQMNSLRAEDTAIYFCARSLAGNAMDYWGQGTLVTVSS
VL: EIVMTQSPDFQSVTPKEKVTLTCRASQTISDYLHWYQQKPDQSPKLLIKFASQSISGVPSRFSGSGSGSDFTLTINSLEAEDAATYYCQNGHGFPRTFGQGTKLEIKR
Work on B3 yielded an EC50 (recombinant human CD47 [5]) of 2.55 nM and an EC50 (recombinant human CD47 [6]) of 2.55 nM.

B4: Vel-IPV-hB6H12.3 (wild-type Vel mask, Coil 1) (antibody, V domains shown)
VH: B3 VH
VL: EIVMTQSPDFQSVTPKEKVTLTCRASQTISDYLHWYQQKPDQSPKLLIKFASQSISGVPSRFSGSGSGSDFTLTINSLEAEDAATYYCQNGHGFPRTFGQGTKLEIK
With B4 the EC50 (recombinant human CD47 [6]) was 494 nM and the “EC50 fold change from hB6H12.3” value (recombinant human CD47 [6]) was 194 fold.

With QGASTSVDELQAEVDQLEDENYAIKTKLAQLRKKVEKLGSIPVS [Coil 148 heavy chain peptide for CD studies (VelB L24I/V28L)] the “Tm (melting temperature of the heavy chain homodimer)” value [1] was “Tm=40.8 °C”.

With QGASTSVDELQAEVDQLEDENYAIKTKVAQLRKKVEKLGSIPVS [Coil 10 heavy chain peptide for CD studies (VelB L24I)] the “Tm (melting temperature of the heavy chain homodimer)” value [1] was “Tm=21.0 °C”.

With QGASTSVDELQAEVDQLEDENYALKTKVAQLRKKVEKLGSIPVS [Vel heavy chain peptide for CD studies (VelB)] the “Tm (melting temperature of the heavy chain homodimer)” value [1] was “Tm=23.3 °C”.

B5: Vel-IPV-Ab1 Coil 126 (antibody, part only; not given: Ab1 heavy and light chains, part only)
heavy, part: QGASTSVDELQAEVDQLEDENYAYKTKVAQLRKKVEKLGSIPVSLRSG
light, part: QGASTTVAQLEEKVKTLRAENYESKSEVQRLEEQVAQLGSIPVSLRSG
B5 gave an EC50 [7] of 9.5 nM, an EC50 fold change from Ab1 [7] of 68 fold and a Binding Bmax (OD450) [8] of 0.7 OD450. For the same binder, the EC50 [8] was 111 nM and the EC50 fold change from Ab1 [8] was 444 fold.

B6: Vel-IPV-Ab1 Coil 129 (antibody, part only; not given: Ab1 heavy and light chains, part only)
heavy, part: B5 heavy, part with Y24S
light, part: B5 light, part with S24Y
For B6, the EC50 [7] was 2.6 nM, the EC50 fold change from Ab1 [7] was 19 fold and the Binding Bmax (OD450) [8] was 0.6 OD450. For the same binder, the EC50 [8] was 76.6 nM and the EC50 fold change from Ab1 [8] was 306 fold.

B7: Vel-IPV-hB6H12.3 Coil 164 (antibody, part only; not given: hB6H12.3 heavy and light chains, part only)
heavy, part: B5 heavy, part with Y24S, L31Q
light, part: B5 light, part with S24R, L31V
Work on B7 yielded a Binding Bmax (OD450) (recombinant human CD47 [9]) of 1.5 OD450, an EC50 (recombinant human CD47 [9]) of 21.5 nM and an EC50 fold change from hB6H12.3 (recombinant human CD47 [9]) of 8 fold.

B8: Vel-IPV-hB6H12.3 Coil 152 (antibody, part only; not given: hB6H12.3 heavy and light chains, part only)
heavy, part: B5 heavy, part with Y24H
light, part: B5 light, part with S24L, V28A, L31E
In the case of B8, the Binding Bmax (OD450) (recombinant human CD47 [9]) is reported as 1.5 OD450, the EC50 (recombinant human CD47 [9]) is reported as 31.7 nM and the EC50 fold change from hB6H12.3 (recombinant human CD47 [9]) is reported as 12 fold.

B9: Vel-IPV-hB6H12.3 Coil 149 (antibody, part only; not given: hB6H12.3 heavy and light chains, part only)
heavy, part: B5 heavy, part with Y24I, V28I
light, part: B5 light, part with S24A
B9 showed a Binding Bmax (OD450) (recombinant human CD47 [9]) of 1.7 OD450, an EC50 (recombinant human CD47 [9]) of 298 nM and an EC50 fold change from hB6H12.3 (recombinant human CD47 [9]) of 117 fold.

From US20240376200A1 (Seagen, published 2024)
